Results taken from patent US20080182978A1, “ANTI-NGF ANTIBODIES AND METHODS USING SAME” (RINAT NEUROSCIENCE CORP, priority 2002, published 2008).

What was measured:
[1] = system: moderate to severe pain from osteoarthritis of the knee; assay: Clinical study, osteoarthritis of the knee: WOMAC 3.1 index; type: in vivo, human; settings: day 1 to day 28
Text: Adult males and females (ages between 35 to 65) who were experiencing moderate-to-severe pain from osteoarthritis of the knee, but were in otherwise overall good health were enrolled in the study. During the screening period, patients were required to discontinue arthritis medications such as NSAIDs, cyclooxygenase type-2 (COX-2) inhibitors, and opiates at least 14 days prior to administration of anti-NGF antibody E3. Patients were allowed to use rescue medications of acetaminophen or ibuprofen with some restrictions based on laboratory findings or past medical history. […] Thirty-four patients were admitted to the study and assessed as inpatients for on Study Days -1, 1 and 2. […] The volume for each patient was calculated based on the subject's Day -1 weight and assigned dose level, ranging from 3-6 cc for cohort 1, 10-20 cc for cohort 2, 30-60 cc for cohort 3, and 100 cc for cohort 4 and cohort 5. […] Each domain was scored by determining the means of the VAS scores of the component questions. The total WOMAC 3.1TM was scored by determining the means of the scores from each of the 3 domains. […] Outcome was assessed as change from baseline (pain level during screening period), expressed as pain intensity difference (PID) or summed pain intensity difference (SPID) for different dose levels. […]

human NGF = human NGF (Homo sapiens, UniProt P01138); assay: BIAcore affinity determination assay (kon, koff, KD of purified Fabs); type: binding; settings: higher affinity than 911
Procedure: Affinities of anti-NGF Fabs and monoclonal antibodies were determined using the BIAcore300™ surface plasmon resonance (SPR) system (BIAcore, INC, Piscaway N.J.). CM5 chips were activated with N-ethyl-N′-(3-dimethylaminopropyl)-carbodimide hydrochloride (EDC) and N-hydroxysuccinimide (NHS) according to the supplier's instructions. Human NGF was diluted into 10 mM sodium acetate pH 4.0 and injected over the activated chip at a concentration of 0.005 mg/mL. Using variable flow time across the individual chip channels, two ranges of antigen density were achieved: 100-200 response units (RU) for detailed kinetic studies and 500-600 RU for screening assays. The chip was blocked with ethanolamine. […] HBS-EP buffer (0.01M HEPES, pH 7.4, 0.15 NaCl, 3 mM EDTA, 0.005% Surfactant […]) was used as running buffer for all the BIAcore assays.
Serial dilutions (0.1-10× estimated KD) of purified Fab samples were injected for 1 min at 100 μL/min and dissociation times of up to 2 h were allowed. The concentrations of the Fab proteins were determined by ELISA and/or SDS-PAGE electrophoresis using as a standard a Fab of known concentration (as determined by amino acid analysis). Kinetic association rates (kon) and dissociation rates (koff) were obtained simultaneously by fitting the data to a 1:1 Langmuir binding model (Karlsson, R. Roos, H. Fagerstam, L. Petersson, B. (1994). Methods Enzymology 6. 99-110) using the BIAevaluation program. Equilibrium dissociation constant (KD) values were calculated as koff/kon.
The binding affinities to human NGF of Fabs E3 and 3C were measured using BIAcore analysis according to the manufacturer's instructions and as described above, except that 100 RU NGF was used on chip to prevent a rebinding effect. Briefly, several concentrations of antibodies (Fabs) were injected for 2 minutes onto a CM5 chip with 100 RU of immobilized human NGF on it, and permitted to dissociate for 1800 seconds. Mouse antibody 911 (Fab) was analyzed as a control. Data was analyzed using BIAevaluation software following the manufacturer's instructions. E3 bound human NGF with a KD of approximately 0.07 nM (and with a kon of about 6.0e5 M-1s-1, and a koff of about 4.2e-5s-1).

Chain of human NGF (P01138 122-241): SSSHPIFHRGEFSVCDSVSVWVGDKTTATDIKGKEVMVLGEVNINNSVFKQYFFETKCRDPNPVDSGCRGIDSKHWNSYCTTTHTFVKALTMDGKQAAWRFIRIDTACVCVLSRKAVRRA

B1: E3: humanized, affinity matured anti-NGF antagonist antibody; variable regions SEQ ID NO:1 and 2; human IgG2a (A330P331 to S330S331), kappa (antibody, V domains shown)
VH: QVQLQESGPGLVKPSETLSLTCTVSGFSLIGYDLNWIRQPPGKGLEWIGIIWGDGTTDYNSAVKSRVTISKDTSKNQFSLKLSSVTAADTAVYYCARGGYWYATSYYFDYWGQGTLVTVS
VL: DIQMTQSPSSLSASVGDRVTITCRASQSISNNLNWYQQKPGKAPKLLIYYTSRFHSGVPSRFSGSGSGTDFTFTISSLQPEDIATYYCQQEHTLPYTFGQGTKLEIKRT
modifications: human IgG2a constant (A330S/P331S) and kappa constant missing
WOMAC pain, physical function and stiffness score ([1]; 100 μg/kg): reduced significantly
WOMAC score ([1]; single i.v. dose): reduced WOMAC score
binding affinity to human NGF relative to parent mouse antibody 911 (human NGF): approximately 50 fold
